Values of other authors, collected in paper PMC3012698, “Characterization of a Novel Interaction between Bcl-2 Members Diva and Harakiri” (PLoS ONE, 2010).
Values belong to the molecule of their own block, whether it stands above or below them.

Legend:
[1] = system: Diva; conditions: ref [21]
Source text: Harakiri localizes in membranes and exerts proapoptotic activity by interacting with survival Bcl-XL and Bcl-2 [18]. Harakiri has not been characterized at the structural level except for its C-terminal sequence (∼30 amino acids), which is known from low-resolution techniques to adopt α-helical conformation in model membranes. Diva has also been found predominantly in membranes [20]–[21]. However, little functional data on Diva is available. Specifically, previous independent reports indicate that Diva can have both pro- or antiapoptotic function [20]–[21]. Diva has also been ...

[2] = ref [10]
Description: Circular dichroism (CD) experiments were performed on Harakiri's cytosolic domain to obtain information on its conformational behavior. […] Thus, the cytosolic domain of Harakiri is largely unstructured. Consequently, the NMR spectra of Hrk_ΔTM show small amide ^1H chemical shift dispersion (from ∼7.9 to 8.7 ppm) and severe signal overlap ( Fig. 6 ). These spectral features together with the absen ...

- binding to Diva (co-immunoprecipitation) [1]: bind
B1: Bik: proapoptotic Bcl-2 member Bik (protein, UniProt Q13323 1-160, looked up)
Bcl-2-interacting killer: MSEVRPLSRDILMETLLYEQLLEPPTMEVLGMTDSEEDLDPMEDFDSLECMEGSDALALRLACIGDEMDVSLRAPRLAQLSEVAMHSLGLAFIYDQTEDIRDVLRSFMDGFTTLKENIMRFWRSPNPGSWVSCEQVLLALLLLLALLLPLLSGGLHLLLK

B2: Bad: BH3-only protein Bad (protein, UniProt Q92934 1-168, looked up)
Bcl2-associated agonist of …: MFQIPEFEPSEQEDSSSAERGLGPSPAGDGPSGSGKHHRQAPGLLWDASHQQEQPTSSSHHGGAGAVEIRSRHSSYPAGTEDDEGMGEEPSPFRGRSRSAPPNLWAAQRYGRELRRMSDEFVDSFKKGLPRPKSAGTATQMRQSSSWTRVFQSWWDRNLGRGSSAPSQ
- structural state of unbound BH3-only protein [2]: unstructured

- binding to Diva (co-immunoprecipitation) [1]: bind
B3: Bak: proapoptotic Bcl-2 member Bak (protein, UniProt Q16611 2-211, looked up)
Bcl-2 homologous …: ASGQGPGPPRQECGEPALPSASEEQVAQDTEEVFRSYVFYRHQQEQEAEGVAAPADPEMVTLPLQPSSTMGQVGRQLAIIGDDINRRYDSEFQTMLQHLQPTAENAYEYFTKIATSLFESGINWGRVVALLGFGYRLALHVYQHGLTGFLGQVTRFVVDFMLHHCIARWIAQRGGWVAALNLGNGPILNVLVVLGVVLLGQFVVRRFFKS
